B1: mRNA-splicing (parent)
chain: AGUUGCUGCUGGGAGCUCCAGCACAGUGAAAUGGACAGAAGGGCAGAGCAA

Variants of: B1
Assay: exon inclusion enrichment index; higher = more inclusion; WT1 exon 5 minigene, HEK293

Variant | exon inclusion enrichment index
C6A U7A C9A U10A G21U | 0.507
C6A U7A C9A U10A G21U C22A | 0.136
C6A U7A C9A U10A G21U C22G | 0.565
C6A U7A C9A U10A G21U C22U | 0.172
C6A U7A C9A U10A G26A | 1.08
C6A U7A C9A U10A G26A U27A | 0.813
C6A U7A C9A U10A G26A U27C | 2.37
C6A U7A C9A U10A G26A U27G | 1.32
C6A U7A C9A U10A G26C | 1.1
C6A U7A C9A U10A G26C U27A | 0.842
C6A U7A C9A U10A G26C U27C | 2.32
C6A U7A C9A U10A G26C U27G | 2.09
C6A U7A C9A U10A G26U | 0.794
C6A U7A C9A U10A G26U U27A | 0.264
C6A U7A C9A U10A G26U U27C | 2.22
C6A U7A C9A U10A G26U U27G | 1.76
C6A U7A C9A U10A G28A | 0.174
C6A U7A C9A U10A G28A A29C | 0.433
C6A U7A C9A U10A G28A A29G | 0.227
C6A U7A C9A U10A G28A A29U | 0.156
C6A U7A C9A U10A G28C | 0.528

Variant | exon inclusion enrichment index
C6A U7A C9A U10A G28C A29C | 0.683
C6A U7A C9A U10A G28C A29G | 1.45
C6A U7A C9A U10A G28C A29U | 0.358
C6A U7A C9A U10A G28U | 0.147
C6A U7A C9A U10A G28U A29C | 0.539
C6A U7A C9A U10A G28U A29G | 0.627
C6A U7A C9A U10A G28U A29U | 0.122
C6A U7A C9A U10A G33A | 0.0584
C6A U7A C9A U10A G33A G34A | 0.0545
C6A U7A C9A U10A G33A G34C | 0.0943
C6A U7A C9A U10A G33A G34U | 0.0565
C6A U7A C9A U10A G33C | 1.04
C6A U7A C9A U10A G33C G34A | 0.421
C6A U7A C9A U10A G33C G34C | 0.353
C6A U7A C9A U10A G33C G34U | 0.522
C6A U7A C9A U10A G33U | 0.2
C6A U7A C9A U10A G33U G34A | 0.0617
C6A U7A C9A U10A G33U G34C | 0.221
C6A U7A C9A U10A G33U G34U | 0.0929
C6A U7A C9A U10A G34A | 0.344
C6A U7A C9A U10A G34A A35C | 0.52

Variant | exon inclusion enrichment index
C6A U7A C9A U10A G34A A35G | 0.208
C6A U7A C9A U10A G34A A35U | 0.216
C6A U7A C9A U10A G34C | 0.179
C6A U7A C9A U10A G34C A35C | 0.0588
C6A U7A C9A U10A G34C A35G | 0.484
C6A U7A C9A U10A G34C A35U | 0.104
C6A U7A C9A U10A G34U | 0.123
C6A U7A C9A U10A G34U A35C | 0.203
C6A U7A C9A U10A G34U A35G | 0.134
C6A U7A C9A U10A G34U A35U | 0.0771
C6A U7A C9A U10A G38A | 0.314
C6A U7A C9A U10A G38A A39C | 0.579
C6A U7A C9A U10A G38A A39G | 0.862
C6A U7A C9A U10A G38A A39U | 0.0204
C6A U7A C9A U10A G38C | 0.524
C6A U7A C9A U10A G38C A39C | 0.874
C6A U7A C9A U10A G38C A39G | 0.734
C6A U7A C9A U10A G38C A39U | 0.0576
C6A U7A C9A U10A G38U | 0.223
C6A U7A C9A U10A G38U A39C | 0.692
C6A U7A C9A U10A G38U A39G | 0.321

Variant | exon inclusion enrichment index
C6A U7A C9A U10A G38U A39U | 0.0139
C6A U7A C9A U10A G41A | 0.4
C6A U7A C9A U10A G41A G42A | 0.559
C6A U7A C9A U10A G41A G42C | 1.25
C6A U7A C9A U10A G41A G42U | 0.617
C6A U7A C9A U10A G41C | 2.07
C6A U7A C9A U10A G41C G42A | 1
C6A U7A C9A U10A G41C G42C | 2.14
C6A U7A C9A U10A G41C G42U | 2.17
C6A U7A C9A U10A G41U | 0.866
C6A U7A C9A U10A G41U G42A | 0.192
C6A U7A C9A U10A G41U G42C | 1.58
C6A U7A C9A U10A G41U G42U | 0.717
C6A U7A C9A U10A G42A | 1.81
C6A U7A C9A U10A G42A G43A | 2.97
C6A U7A C9A U10A G42A G43C | 3.53
C6A U7A C9A U10A G42A G43U | 2.73
C6A U7A C9A U10A G42C | 1.99
C6A U7A C9A U10A G42C G43A | 1.78
C6A U7A C9A U10A G42C G43C | 1.88
C6A U7A C9A U10A G42C G43U | 1.96

Source: the RNAGym collection of RNA variant scans (doi:10.1101/gr.219683.116)
